From paper doi:10.1101/786475 (bioRxiv, 2019)

Key:
Experiment in all cases: peptide or protein array
[1] = target: T1, Gpp2p (spotted on the yeast ProtoArray) (S. cerevisiae, UniProt P40106 1-250)
T1 sequence (looked up): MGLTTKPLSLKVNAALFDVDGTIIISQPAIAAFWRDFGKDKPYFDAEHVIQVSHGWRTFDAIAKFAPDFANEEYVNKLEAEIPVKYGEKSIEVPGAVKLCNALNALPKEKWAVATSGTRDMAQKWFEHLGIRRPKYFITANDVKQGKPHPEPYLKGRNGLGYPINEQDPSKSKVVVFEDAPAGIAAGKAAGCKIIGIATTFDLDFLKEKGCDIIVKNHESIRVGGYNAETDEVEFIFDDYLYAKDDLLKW

[2] = target: T2, Aip1p (spotted on the yeast ProtoArray) (S. cerevisiae, UniProt P46680 1-615)
T2 sequence (looked up): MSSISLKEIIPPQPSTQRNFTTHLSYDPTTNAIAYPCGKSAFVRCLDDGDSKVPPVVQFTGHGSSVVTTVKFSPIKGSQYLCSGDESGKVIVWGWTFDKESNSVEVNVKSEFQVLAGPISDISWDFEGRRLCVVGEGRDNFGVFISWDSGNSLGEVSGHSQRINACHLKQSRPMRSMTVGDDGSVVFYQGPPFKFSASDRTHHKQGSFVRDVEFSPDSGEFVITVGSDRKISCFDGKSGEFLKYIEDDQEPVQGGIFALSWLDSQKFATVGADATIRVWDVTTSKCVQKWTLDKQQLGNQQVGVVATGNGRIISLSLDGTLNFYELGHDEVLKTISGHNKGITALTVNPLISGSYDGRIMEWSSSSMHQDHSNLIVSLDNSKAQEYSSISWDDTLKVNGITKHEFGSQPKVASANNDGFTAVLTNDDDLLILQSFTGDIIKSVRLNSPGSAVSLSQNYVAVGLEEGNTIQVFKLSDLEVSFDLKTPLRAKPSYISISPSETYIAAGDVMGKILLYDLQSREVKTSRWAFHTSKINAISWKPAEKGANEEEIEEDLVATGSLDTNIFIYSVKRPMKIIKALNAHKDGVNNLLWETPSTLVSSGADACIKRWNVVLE

[3] = target: Frd1p (spotted on the yeast ProtoArray) (S. cerevisiae, UniProt P32614 1-470)
[4] = target: T3, Cap2p (spotted on the yeast ProtoArray) (S. cerevisiae, UniProt P13517 1-287)
T3 sequence (looked up): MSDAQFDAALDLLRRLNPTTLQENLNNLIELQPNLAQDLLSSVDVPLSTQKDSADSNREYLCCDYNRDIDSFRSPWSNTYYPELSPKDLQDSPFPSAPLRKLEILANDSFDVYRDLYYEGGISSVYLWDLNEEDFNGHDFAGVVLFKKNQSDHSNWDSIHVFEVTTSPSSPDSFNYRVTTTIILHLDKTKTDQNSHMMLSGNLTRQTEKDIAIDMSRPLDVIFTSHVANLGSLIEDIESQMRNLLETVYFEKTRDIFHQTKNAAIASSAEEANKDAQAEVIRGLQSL

[5] = target: T4, Gln1p (spotted on the yeast ProtoArray) (S. cerevisiae, UniProt P32288 1-370)
T4 sequence (looked up): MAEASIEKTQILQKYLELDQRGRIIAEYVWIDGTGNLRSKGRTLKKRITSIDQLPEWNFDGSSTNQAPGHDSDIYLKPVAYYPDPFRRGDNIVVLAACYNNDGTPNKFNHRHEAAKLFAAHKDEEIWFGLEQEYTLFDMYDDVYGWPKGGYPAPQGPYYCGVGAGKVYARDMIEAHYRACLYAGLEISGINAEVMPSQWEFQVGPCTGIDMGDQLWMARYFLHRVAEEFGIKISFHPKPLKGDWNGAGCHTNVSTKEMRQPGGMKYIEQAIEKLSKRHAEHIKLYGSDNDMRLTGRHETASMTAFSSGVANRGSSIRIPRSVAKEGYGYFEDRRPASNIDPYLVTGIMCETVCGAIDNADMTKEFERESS

[6] = target: T5, Erg20p (spotted on the yeast ProtoArray) (S. cerevisiae, UniProt P08524 1-352)
T5 sequence (looked up): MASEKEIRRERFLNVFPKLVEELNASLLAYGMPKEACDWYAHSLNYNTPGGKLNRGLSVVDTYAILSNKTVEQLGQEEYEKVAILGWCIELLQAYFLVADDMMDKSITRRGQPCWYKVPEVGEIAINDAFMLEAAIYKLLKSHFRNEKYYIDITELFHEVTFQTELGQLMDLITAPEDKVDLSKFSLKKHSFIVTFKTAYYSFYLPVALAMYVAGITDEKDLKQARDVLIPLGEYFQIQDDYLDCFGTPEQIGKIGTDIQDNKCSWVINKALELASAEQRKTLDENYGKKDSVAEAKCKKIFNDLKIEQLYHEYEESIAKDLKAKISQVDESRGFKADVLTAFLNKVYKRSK

Measured: binding result

Chain of Frd1p (spotted on the yeast ProtoArray) (P32614 whole entry): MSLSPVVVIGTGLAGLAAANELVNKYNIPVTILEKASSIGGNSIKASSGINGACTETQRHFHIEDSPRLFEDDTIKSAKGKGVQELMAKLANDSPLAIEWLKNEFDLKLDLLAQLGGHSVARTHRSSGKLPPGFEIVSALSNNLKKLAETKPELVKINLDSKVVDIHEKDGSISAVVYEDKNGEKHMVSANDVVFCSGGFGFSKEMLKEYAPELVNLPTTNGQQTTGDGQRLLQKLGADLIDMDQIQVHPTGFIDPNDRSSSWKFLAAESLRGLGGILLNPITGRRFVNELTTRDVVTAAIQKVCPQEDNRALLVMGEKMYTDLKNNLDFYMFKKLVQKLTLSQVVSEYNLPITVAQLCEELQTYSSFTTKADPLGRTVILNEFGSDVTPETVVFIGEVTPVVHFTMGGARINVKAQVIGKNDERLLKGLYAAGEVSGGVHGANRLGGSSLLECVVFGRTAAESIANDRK

B1: purified and biotinylated cytoplasmic domain of the Msb2p protein (HIS-Msb2p^CYT) (domain or fragment, S. cerevisiae, UniProt P32334 1207-1306, looked up)
chain: AFKYIIRRRIQSQEIIKNPEISSISSSEFGGEKNYNNEKRMSVQESITQSMRIQNWMDDSYYGHGLTNNDSTPTRHNTSSSIPKISRPIASQNSLGWNEV
modifications: biotinylated in vitro (sites not given)
binds: [1] | [2] | [3] | [4] | [5] | [6]
